Test results published in patent US20140274782A1, “AFFINITY REAGENTS AND METHODS FOR DETECTION, PURIFICATION, AND PROTEOMIC ANALYSIS OF METHYLATED PROTEINS” (The Board of Trustees of the Leland Stanford Junior …, priority 2013, published 2014).

Experiments:
[1] = tested on: 3×MBT domain of L3MBTL1; test: Triple SILAC pull-down, 3xMBT/3xMBTD355N ratio (cytoplasmic, nuclear and chromatin fractions of 293T cells); format: binding, human; details: SILAC ratio; for 3xMBT/D355N UNC Heavy / 3xMBT/D355N UNC Light: pull-down 3xMBT vs 3xMBTD355N; for 3xMBT/D355N UNC Heavy: experiment with UNC0638 in heavy SILAC media; for 3xMBT/D355N UNC Light: experiment with UNC0638 in light SILAC media; for Protein Ratios 3xMBT/D355N: pull-down by 3xMBT vs 3xMBTD355N, 293T cells;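 on all read-outs here: proteins quantified with MaxQuant, requiring at least two unique peptides and quantification in both label directions, normalized to the mean of proteins from a digested loading control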
[2] = biological target: T1, G9a and GLP (Homo sapiens, UniProt Q96KQ7+Q9H9B1); test: Triple SILAC pull-down after UNC0638 treatment of 293T cells, DMSO/UNC0638 ratio of protein captured by 3×MBT; format: cell-based; details: for Relative to UNC0638 UNC Heavy / Relative to UNC0638 UNC Light: SILAC ratio DMSO/UNC0638 of protein pulled down with 3xMBT; for Relative to UNC0638 UNC Heavy: UNC0638 in heavy SILAC media; for Relative to UNC0638 UNC Light: UNC0638 in light SILAC media; for Relative to UNC0638 Average: average of UNC Light and UNC Heavy experiments; for Protein Ratios DMSO/UNC0638: SILAC ratio of protein captured by 3xMBT, 293T cells treated 24 hours with UNC0638 at 2.5 μM or DMSO; for Candidate G9a/GLP target: reduced association with 3xMBT after UNC0638 treatment;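 on all read-outs here: mass spectrometry (Q-Exactive) SILAC quantitation, DMSO/UNC0638 ratio computed after subtracting 3×MBTD355N mutant pull-down background, only proteins with at least twofold 3×MBT over mutant signal considered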
T1 construct: endogenous in cells; host or cells: HEK 293T
T1 sequence (Q96KQ7 2-1210 limits assumed): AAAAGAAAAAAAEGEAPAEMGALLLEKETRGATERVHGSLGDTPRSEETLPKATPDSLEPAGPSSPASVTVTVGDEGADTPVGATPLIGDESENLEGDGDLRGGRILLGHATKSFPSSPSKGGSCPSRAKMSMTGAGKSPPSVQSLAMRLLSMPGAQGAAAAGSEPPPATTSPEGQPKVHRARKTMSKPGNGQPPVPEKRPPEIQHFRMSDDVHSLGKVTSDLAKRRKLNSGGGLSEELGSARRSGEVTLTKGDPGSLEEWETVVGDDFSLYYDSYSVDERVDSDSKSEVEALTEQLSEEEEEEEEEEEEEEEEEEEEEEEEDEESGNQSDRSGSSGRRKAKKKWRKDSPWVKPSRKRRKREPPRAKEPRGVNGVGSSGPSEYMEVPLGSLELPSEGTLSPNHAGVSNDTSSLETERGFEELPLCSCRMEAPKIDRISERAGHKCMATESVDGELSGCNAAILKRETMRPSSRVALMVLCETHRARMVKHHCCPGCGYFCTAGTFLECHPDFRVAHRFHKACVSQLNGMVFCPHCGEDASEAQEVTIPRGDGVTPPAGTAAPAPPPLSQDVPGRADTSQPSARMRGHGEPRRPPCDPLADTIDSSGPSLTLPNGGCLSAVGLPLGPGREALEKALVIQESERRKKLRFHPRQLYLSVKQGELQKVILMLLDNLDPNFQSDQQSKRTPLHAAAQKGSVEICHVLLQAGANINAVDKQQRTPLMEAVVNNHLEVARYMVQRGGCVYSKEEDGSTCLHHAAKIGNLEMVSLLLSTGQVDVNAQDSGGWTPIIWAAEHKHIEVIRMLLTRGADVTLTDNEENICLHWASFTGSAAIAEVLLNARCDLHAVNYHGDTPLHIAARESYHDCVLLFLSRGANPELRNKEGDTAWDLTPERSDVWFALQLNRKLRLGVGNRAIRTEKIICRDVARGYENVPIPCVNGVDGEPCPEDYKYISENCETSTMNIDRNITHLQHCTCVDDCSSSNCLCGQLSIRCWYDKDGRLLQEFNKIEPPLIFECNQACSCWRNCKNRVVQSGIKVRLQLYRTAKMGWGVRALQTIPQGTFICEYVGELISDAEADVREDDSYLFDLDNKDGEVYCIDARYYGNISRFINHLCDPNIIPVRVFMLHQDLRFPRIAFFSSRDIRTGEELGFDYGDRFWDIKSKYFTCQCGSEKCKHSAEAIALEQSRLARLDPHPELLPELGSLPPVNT
T1 sequence (Q9H9B1 2-1298 limits assumed): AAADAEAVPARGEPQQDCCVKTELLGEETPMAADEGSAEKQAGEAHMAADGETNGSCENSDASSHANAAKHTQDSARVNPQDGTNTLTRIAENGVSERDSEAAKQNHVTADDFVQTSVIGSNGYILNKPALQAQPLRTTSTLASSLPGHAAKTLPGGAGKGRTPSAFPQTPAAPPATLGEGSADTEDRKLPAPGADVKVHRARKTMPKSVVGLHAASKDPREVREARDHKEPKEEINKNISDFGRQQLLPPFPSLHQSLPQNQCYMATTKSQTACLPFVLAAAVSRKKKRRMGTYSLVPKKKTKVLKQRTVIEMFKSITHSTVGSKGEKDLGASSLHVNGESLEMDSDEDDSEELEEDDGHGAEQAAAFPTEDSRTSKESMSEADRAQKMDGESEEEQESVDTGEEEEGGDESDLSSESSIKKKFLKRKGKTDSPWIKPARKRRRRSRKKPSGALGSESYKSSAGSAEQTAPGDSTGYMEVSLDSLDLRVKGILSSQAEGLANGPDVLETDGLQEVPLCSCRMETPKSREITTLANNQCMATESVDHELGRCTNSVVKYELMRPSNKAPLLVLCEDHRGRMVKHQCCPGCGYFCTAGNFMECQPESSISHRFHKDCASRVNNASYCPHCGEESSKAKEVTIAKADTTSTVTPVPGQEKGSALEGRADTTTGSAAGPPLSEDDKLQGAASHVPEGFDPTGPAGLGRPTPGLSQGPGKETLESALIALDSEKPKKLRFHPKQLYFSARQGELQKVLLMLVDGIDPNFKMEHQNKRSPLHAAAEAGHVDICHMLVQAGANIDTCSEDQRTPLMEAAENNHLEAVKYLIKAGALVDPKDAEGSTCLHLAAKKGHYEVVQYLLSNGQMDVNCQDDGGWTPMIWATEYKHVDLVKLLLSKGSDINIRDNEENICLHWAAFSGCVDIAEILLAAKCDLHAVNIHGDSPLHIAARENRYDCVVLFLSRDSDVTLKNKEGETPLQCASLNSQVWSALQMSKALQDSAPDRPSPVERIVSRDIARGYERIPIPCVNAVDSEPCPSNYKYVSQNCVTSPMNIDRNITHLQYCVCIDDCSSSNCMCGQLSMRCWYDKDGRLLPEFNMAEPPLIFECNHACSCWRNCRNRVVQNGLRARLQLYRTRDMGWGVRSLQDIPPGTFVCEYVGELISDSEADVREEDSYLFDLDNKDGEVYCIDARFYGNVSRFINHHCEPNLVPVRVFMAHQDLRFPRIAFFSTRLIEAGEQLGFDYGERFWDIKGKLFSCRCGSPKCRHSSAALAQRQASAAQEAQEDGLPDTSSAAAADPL

| Substance | Relative to UNC0638 UNC Heavy [2] [log base 2] | Relative to UNC0638 UNC Light [2] [log base 2] | Relative to UNC0638 Average [2] [log base 2] | Protein Ratios DMSO/UNC0638 [2] | Candidate G9a/GLP target [2] | 3xMBT/D355N UNC Heavy [1] [log base 2] | 3xMBT/D355N UNC Light [1] [log base 2] | Protein Ratios 3xMBT/D355N [1] |
| --- | --- | --- | --- | --- | --- | --- | --- | --- |
| SSRP1: protein with methylated lysine identified in 3xMBT pull-down | 0.00 | 0.26 | 0.13 |  |  | 4.47 | 4.11 |  |
| DNA ligase 1 | 0.83 | 1.06 | 0.95 | 1.9 | ✓ | 3.18 | 1.96 | 5.9 |
| Protein Wiz | 0.83 | 0.29 | 0.56 | 1.5 | ✓ | 0.93 | 2.02 | 2.7 |

Continued, in another order:

| Relative to UNC0638 UNC Heavy [2] [log base 2] | Relative to UNC0638 UNC Light [2] [log base 2] | Relative to UNC0638 Average [2] [log base 2] | Protein Ratios DMSO/UNC0638 [2] | Candidate G9a/GLP target [2] | Substance | 3xMBT/D355N UNC Heavy [1] [log base 2] | 3xMBT/D355N UNC Light [1] [log base 2] | Protein Ratios 3xMBT/D355N [1] |
| --- | --- | --- | --- | --- | --- | --- | --- | --- |
| 0.12 | 0.10 | 0.11 |  |  | MCM7: protein with methylated lysine identified in 3xMBT pull-down | 2.23 | 2.52 |  |
| 0.25 | 0.29 | 0.27 |  |  | RBM25: protein with methylated lysine identified in 3xMBT pull-down | 2.41 | 2.28 |  |
| 0.18 | 0.06 | 0.12 |  |  | MSH6: protein with methylated lysine identified in 3xMBT pull-down | 2.51 | 2.41 |  |
